Assay results published in PMC3194040.

Molecular target: Recombinant full-length His6-tagged DEG7 (Ser206Ala) (Arabidopsis thaliana)
Assay: SEC

Substance: Recombinant full-length His6-tagged DEG7 (Ser206Ala) (enzyme)
- stoichiometry N: 3
